In patent US20220064691A1 (ABERA BIOSCIENCE, published 2022):

Assays:
ssTorA(3×)-MBP-SpT [1] = test: overview table of covalent ligation to inclusion bodies
ssTorA(3×)-MBP-SpT [2] = test: covalent coupling to inclusion bodies in PBS, 25 °C 2 h; SDS-PAGE and Coomassie staining
Description: The mixtures were incubated at 25° C. for 2h. The inclusion bodies were collected through centrifugation and resuspended in PBS.

B1: GFPnb-SpyCatcher (VHH)
VHH: MVQLVESGGALVQPGGSLRLSCAASGFPVNRYSMRWYRQAPGKEREWVAGMSSAGDRSSYEDSVKGRFTISRDDARNTVYLQMNSLKPEDTAVYYCNVNVGFEYWGQGTQVTVSS
notes: also called GFPnb-SpC; GFPNanobody-SpyCatcher
binding result (ssTorA(3×)-MBP-SpT [1]): binds

B2: GFPnb-SpC EQ (VHH)
VHH: MVQLVESGGALVQPGGSLRLSCAASGFPVNRYSMRWYRQAPGKEREWVAGMSSAGDRSSYEDSVKGRFTISRDDARNTVYLQMNSLKPEDTAVYYCNVNVGFEYWGQGTQVTVSS
binding result (ssTorA(3×)-MBP-SpT [2]): no binding (tested: 3.2 µM)
